The values below come from paper PMC9798253 (Protein Science : A Publication of the Protein Society, 2023).

The subject of this experiment is GST-TRD (TRD domain of MECP2). The experiment can be described thus: GST-pulldown of MBP-ADD. The format is binding. Conditions: 1 μg each protein; 25 mM Tris/HCl pH 8, 200 mM KCl; 1 h, 6°C; SDS-PAGE.

B1: D529A/D530A/D531A triple mutation: D529A/D530A/D531A triple mutant of the ADD domain (MBP‐ADD in pulldown, mVenus‐ADD in cells) (protein)
chain: RERLVYEVRQKCRNIEDICISCGSLNVTLEHPLFVGGMCQNCKNCFLECAYQYAAAGYQSYCTICCGGREVLMCGNNNCCRCFCVECVDLLVGPGAAQAAIKEDPWNCYMCGHKGTYGLLRRREDWPSRLQMFFANNHD
modifications: left off: MBP, N-terminal, kept
Consider B1, for which the “pulldown of MBP-ADD by GST-TRD” value was “reduced”.
